Measured values: article PMC4682968, “Studies on the Glutathione-Dependent Formaldehyde-Activating Enzyme from Paracoccus denitrificans” (PLoS ONE, 2015)

Target: the molecule itself
Assay: SEC; analytical size-exclusion chromatography of wild type non-tagged GFA, calibrated with standard protein samples; apparent Mw = 42 kDa

B1: glutathione-dependent formaldehyde-activating enzyme (GFA) from Paracoccus denitrificans, wild type, non-tagged (enzyme)
chain: GHMVDTSGVKIHPAVDNGIKPAQPGFAGGTLHCKCSTNPVRVAVRAQTAHNHVCGCTKCWKPEGAIFSQVAVVGRDALEVLEGAEKLEIVNAEAPIQRHRCRDCGVHMYGRIENRDHPFYGLDFVHTELSDEDGWSAPEFAAFVSSIIESGVDPSRMEAIRARLRELGLEPYDALSPPLMDAIATHIAKRSGALAA
notes: an additional glycine residue and a histidine residue left on the N-terminus after TEV protease removal of the His-Tag; Expressed from a modified pET16b plasmid with a TEV site between the His-Tag and the insert; also called GFA WT; wild type non-tagged GFA; not shown: His-Tag, N-terminal, cleaved
stoichiometry N: 2
